# Data published in article PMC12242765, “CDK-driven phosphorylation of TRAIP is essential for mitotic replisome disassembly and MiDAS” (Nucleic Acids Research, 2025).
# B1: His6-SUMO-tagged X. laevis TRAIP-wt (enzyme, UniProt Q6NRV0 1-464, looked up)
# chain: MPIRAYCTICSDFFDNARDVAAITCGHTFHQECLLQWFHSAPHRTCPQCRIQVSSRQIINKLFFDIGGEEETVLDAESLKNEVDRIKASLLVKEKEKRECQGLVDSLREMLDVRNVTIQSQQKELGDMEMLCSTLKKQIKFLDKQQSETKAAKDEARKLRNKLKTMESIEVLLQSQRSEVEEMIRDMGSGQAAVEQLAIYCVSLKKEYENLKEVRKSSAEMTEKLRKELFSSNHKAQKAELELTKVREELSASQKELHSADKEIMSLKKKVEFLQKTLTTPTASNEAISRLIFESPAPIGLERPKLRPPMMGNDINLDVTFDIDTPEHNTQKSVVAPFKKMKFDNKEHPLSSPTKNPLQESKGLMSWAGGRTGADEDDDLTLPSFIKNSLLHKKPVGSLLGLRQNTGAVRTGFDGLGGRTKFIQPSNLTEIRPLHQKMKRKKVSRPTACTSSLANQPRLEDFLK
# notes: TRAIP ubiquitin ligase, Xenopus laevis, wild type; SUMO-TRAIP is said to be 65 kDa; also called His6-SUMO-TRAIP-wt; His-SUMO-TRAIP; source: E. coli Rosetta (DE3) pLysS, pCA528 vector, purified (Ni-NTA; Mono Q for the gel filtration); not shown: His6, N-terminal, kept; SUMO, N-terminal, kept
# B2: phosphorylated His6-SUMO-TRAIP-wt (in vitro phosphorylated with CDK1/Cyclin B) (enzyme, X. laevis, UniProt Q6NRV0 1-464, looked up)
# chain: B1 chain
# modifications: phosphorylated in vitro by CDK1/Cyclin B; mutation of T280, S295 and S352 to alanine (TRAIP-3A) abolishes this phosphorylation
# notes: TRAIP ubiquitin ligase, Xenopus laevis, wild type, as m1; the sites phosphorylated in vitro were not mapped one by one; T325 is discussed as a possible fourth site; also called phosphorylated TRAIP-wt; phosphorylated TRAIP; source: E. coli Rosetta (DE3) pLysS, purified (Ni-NTA, Mono Q), then phosphorylated in vitro with CDK1/Cyclin B; not shown: His6, N-terminal, kept; SUMO, N-terminal, kept
# Key:
# [1] = target: the molecule itself; assay: SEC + other: glycerol gradient sedimentation; Superdex 200 Increase 3.2/300 (Stoke's radius 62.77 Å) and 20%-40% glycerol gradient in LFB1/100 (5.105 S), combined by the Siegel-Monty method; apparent molecular size; monomer to dimer
# [2] = target: the molecule itself; assay: SEC; Superdex 200 Increase 3.2/300, 20 μl/min; TRAIP-wt and CDK1/Cyclin B-phosphorylated TRAIP-wt loaded one at a time; fractions blotted with TRAIP antibodies
Protein,stoichiometry N [1],binding result [2]
B1,2,
B2,,binds
